From US20220363761A1 (MERUS N V, published 2022)
Read-outs that look alike come from different tables or passages of the source.

T1: human LAG-3 (expressed on 293FF cells) (human, UniProt P18627 23-525)
T1 construct: whole, on cells; also called CD223
T1 sequence (looked up): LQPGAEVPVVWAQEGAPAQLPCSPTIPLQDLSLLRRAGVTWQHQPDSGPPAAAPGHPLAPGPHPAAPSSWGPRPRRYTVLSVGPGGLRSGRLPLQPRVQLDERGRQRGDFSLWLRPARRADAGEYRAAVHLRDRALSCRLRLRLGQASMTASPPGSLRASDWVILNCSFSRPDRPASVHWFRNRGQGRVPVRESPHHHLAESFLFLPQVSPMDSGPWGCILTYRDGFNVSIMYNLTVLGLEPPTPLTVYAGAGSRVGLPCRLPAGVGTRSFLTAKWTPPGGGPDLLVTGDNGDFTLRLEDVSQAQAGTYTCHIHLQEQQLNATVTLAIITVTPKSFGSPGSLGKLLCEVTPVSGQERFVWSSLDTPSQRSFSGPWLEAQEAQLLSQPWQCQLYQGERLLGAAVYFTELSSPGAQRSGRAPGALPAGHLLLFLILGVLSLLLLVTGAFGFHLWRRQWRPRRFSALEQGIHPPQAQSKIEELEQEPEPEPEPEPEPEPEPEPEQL

B1: PD-1xLAG-3 bispecific antibody SEQ ID NO: 1 × SEQ ID NO: 11 (bispecific antibody)
heavy (part 1 of 2) 1: not shown
heavy (part 2 of 2) 1: not shown
heavy (part 1 of 2) 2: QVQLQESGPGLVRPSETLSLTCTVSGGSISSYSWSWIRQPPGKGLEWIGYIDYSGSTNYNPSLKSRVTISVDTSKTQFSLKLSSVSAADTAVYYCAKDLLYKWNYVEGFDIWGQGTTVTVSSASTKGPSVFPLAPSSKSTSGGTAALGCLVKDYFPEPVTVSWNSGALTSGVHTFPAVLQSSGLYSLSSVVTVPSSSLGTQTYICNVNHKPSNTKVDKRV
heavy (part 2 of 2) 2: not shown
light: not shown
notes: IgG1; common light chain; also called PB1; not shown: hinge (IgG1)
B2: PD-1xLAG-3 bispecific antibody SEQ ID NO: 5 × SEQ ID NO: 11 (bispecific antibody)
heavy (part 1 of 2) 1: not shown
heavy (part 2 of 2) 1: not shown
heavy (part 1 of 2) 2: QVQLQESGPGLVRPSETLSLTCTVSGGSISSYSWSWIRQPPGKGLEWIGYIDYSGSTNYNPSLKSRVTISVDTSKTQFSLKLSSVSAADTAVYYCAKDLLYKWNYVEGFDIWGQGTTVTVSSASTKGPSVFPLAPSSKSTSGGTAALGCLVKDYFPEPVTVSWNSGALTSGVHTFPAVLQSSGLYSLSSVVTVPSSSLGTQTYICNVNHKPSNTKVDKRV
heavy (part 2 of 2) 2: not shown
light: not shown
notes: IgG1; common light chain; also called PB13; not shown: hinge (IgG1)
B3: PD-1xLAG-3 bispecific antibody SEQ ID NO: 1 × SEQ ID NO: 14 (bispecific antibody)
heavy (part 1 of 2) 1: not shown
heavy (part 2 of 2) 1: not shown
heavy (part 1 of 2) 2: EVQLVQSGSELKKPGASVKVSCKASGYTFTTNALNWVRQAPGQGLEWMGWINTHTGNPTYAQGFIGRFVFSLDTSVSTAYLQIRSLKAEDTAVYYCAREPNWGVYFDYWGQGTLVTVSSASTKGPSVFPLAPSSKSTSGGTAALGCLVKDYFPEPVTVSWNSGALTSGVHTFPAVLQSSGLYSLSSVVTVPSSSLGTQTYICNVNHKPSNTKVDKRV
heavy (part 2 of 2) 2: not shown
light: not shown
notes: IgG1; common light chain; also called PB4; not shown: hinge (IgG1)
B4: PD-1xLAG-3 bispecific antibody SEQ ID NO: 6 × SEQ ID NO: 14 (bispecific antibody)
heavy (part 1 of 2) 1: not shown
heavy (part 2 of 2) 1: not shown
heavy (part 1 of 2) 2: EVQLVQSGSELKKPGASVKVSCKASGYTFTTNALNWVRQAPGQGLEWMGWINTHTGNPTYAQGFIGRFVFSLDTSVSTAYLQIRSLKAEDTAVYYCAREPNWGVYFDYWGQGTLVTVSSASTKGPSVFPLAPSSKSTSGGTAALGCLVKDYFPEPVTVSWNSGALTSGVHTFPAVLQSSGLYSLSSVVTVPSSSLGTQTYICNVNHKPSNTKVDKRV
heavy (part 2 of 2) 2: not shown
light: not shown
notes: IgG1; common light chain; also called PB10; PD-1xLAG-3 bispecific antibody 2; not shown: hinge (IgG1)

What was measured:
[1] = biological target: cynomolgus PD-1 (expressed on 293FF cells) (cynomolgus, UniProt B0LAJ3 25-288); assay: FACS on 293FF cells transiently transfected with cynomolgus PD-1
Description: (§1) The binding of bispecific antibodies was analyzed by FACS using cell lines stably transfected with human LAG-3 or rhesus LAG-3, or transiently transfected with human PD-1 or cynomolgus PD-1. […] IgG specific binding was measured by FACS using a 8-step, 5-fold dilution starting at 50 ug/ml. A goat-anti-human PE was used as secondary detection antibody. Cells w/o staining or only secondary detection antibody were included as negative assay controls.

[2] = biological target: T2, human PD-1 (expressed on cells) (human, UniProt Q15116 25-288); assay: cell-based or functional assay
[3] = biological target: T2, human PD-1 (expressed on cells); assay: cell-based or functional assay; remark: listed apart in the source
[4] = biological target: T1, human LAG-3 (expressed on 293FF cells); assay: FACS on 293FF cells stably transfected with human LAG-3
Description: as §1

[5] = biological target: T2, human PD-1 (expressed on cells); assay: cell-based or functional assay; remark: listed apart in the source

cynomolgus PD-1 (expressed on 293FF cells), sequence (B0LAJ3 entry or part of it limits assumed): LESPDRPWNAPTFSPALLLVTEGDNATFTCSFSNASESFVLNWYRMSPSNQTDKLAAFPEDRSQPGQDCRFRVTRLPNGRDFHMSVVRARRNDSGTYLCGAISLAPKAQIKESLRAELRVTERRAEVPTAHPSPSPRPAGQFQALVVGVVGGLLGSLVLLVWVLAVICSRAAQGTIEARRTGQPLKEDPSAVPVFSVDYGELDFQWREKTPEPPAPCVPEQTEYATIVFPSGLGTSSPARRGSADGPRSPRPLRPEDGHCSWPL
T2 sequence (Q15116 25-288): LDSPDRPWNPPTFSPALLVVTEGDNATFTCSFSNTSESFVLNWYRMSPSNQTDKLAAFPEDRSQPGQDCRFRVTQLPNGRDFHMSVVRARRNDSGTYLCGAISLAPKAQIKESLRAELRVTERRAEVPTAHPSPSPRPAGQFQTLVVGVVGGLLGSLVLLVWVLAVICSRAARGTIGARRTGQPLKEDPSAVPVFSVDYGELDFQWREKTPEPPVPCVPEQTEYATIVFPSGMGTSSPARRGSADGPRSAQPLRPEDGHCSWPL

| Binder | binding result [1] | EC50 (read off the curve); PD-1/PD-L1 reporter assay, luciferase fold induction [2] [µg/mL] | AUC relative to positive control, PD-1/LAG-3 reporter assay [3] [%] | EC50 (nM) PD-1/LAG-3 reporter assay [3] [nM] | binding result [4] | EC50 (read off the curve); PD-1/PD-L1 reporter assay, luciferase fold induction [5] [µg/mL] |
| --- | --- | --- | --- | --- | --- | --- |
| B1 | binds | ~0.5 | 215 | 19.1 | binds |  |
| B2 | binds | ~0.7 | 218 | 10.1 | binds |  |
| B3 | binds |  | 271 | 9.96 | binds | ~1 |
| B4 | binds |  | 246 | 18 | binds | ~1 |
